B1: TNFRI171-A30 (receptor)
chain: MDSVCPQGKYIHPQNNSICCTKCHKGTYLYNDCPGPGQDTDCRECESGSFTAIPNFLPACLSCSKCRKEMGQVEISSCTVDRDTVCGCRKNQYRHYWSENLFQCFNCSLCLNGTVHLSCQEKQNTVCTCHAGFFLRENECVSCSNCKKSLECTKLCLPQIENVKGTEDSGTT
B2: TNFRI171-A8 (receptor)
chain: MDSVCPQGKYIHPQNNSICCTKCHKGTYLYNDCPGPGQDTDCRECESGSFTAFENFLPACLSCSKCRKEMGQVEISSCTVDRDTVCGCRKNQYRHYWSENLFQCFNCSLCLNGTVHLSCQEKQNTVCTCHAGFFLRENECVSCSNCKKSLECTKLCLPQIENVKGTEDSGTT
B3: TNFRI171-A10 (receptor)
chain: MDSVCPQGKYIHPQNNSICCTKCHKGTYLYNDCPGPGQDTDCRECESGSFTAWENFLPACLSCSKCRKEMGQVEISSCTVDRDTVCGCRKNQYRHYWSENLFQCFNCSLCLNGTVHLSCQEKQNTVCTCHAGFFLRENECVSCSNCKKSLECTKLCLPQIENVKGTEDSGTT
B4: TNFRI171-A15 (receptor)
chain: MDSVCPQGKYIHPQNNSICCTKCHKGTYLYNDCPGPGQDTDCRECESGSFTAYENFLPACLSCSKCRKEMGQVEISSCTVDRDTVCGCRKNQYRHYWSENLFQCFNCSLCLNGTVHLSCQEKQNTVCTCHAGFFLRENECVSCSNCKKSLECTKLCLPQIENVKGTEDSGTT
B5: TNFRI171-A9 (receptor)
chain: MDSVCPQGKYIHPQNNSICCTKCHKGTYLYNDCPGPGQDTDCRECESGSFTAMENFLPACLSCSKCRKEMGQVEISSCTVDRDTVCGCRKNQYRHYWSENLFQCFNCSLCLNGTVHLSCQEKQNTVCTCHAGFFLRENECVSCSNCKKSLECTKLCLPQIENVKGTEDSGTT
B6: TNFRI171-A16 (receptor)
chain: MDSVCPQGKYIHPQNNSICCTKCHKGTYLYNDCPGPGQDTDCRECESGSFTAKENFLPACLSCSKCRKEMGQVEISSCTVDRDTVCGCRKNQYRHYWSENLFQCFNCSLCLNGTVHLSCQEKQNTVCTCHAGFFLRENECVSCSNCKKSLECTKLCLPQIENVKGTEDSGTT
B7: TNFRI171-A2 (receptor)
chain: MDSVCPQGKYIHPQNNSICCTKCHKGTYLYNDCPGPGQDTDCRECESGSFTAIENFLPACLSCSKCRKEMGQVEISSCTVDRDTVCGCRKNQYRHYWSENLFQCFNCSLCLNGTVHLSCQEKQNTVCTCHAGFFLRENECVSCSNCKKSLECTKLCLPQIENVKGTEDSGTT
B8: TNFRI171-A18 (receptor)
chain: MDSVCPQGKYIHPQNNSICCTKCHKGTYLYNDCPGPGQDTDCRECESGSFTAHENFLPACLSCSKCRKEMGQVEISSCTVDRDTVCGCRKNQYRHYWSENLFQCFNCSLCLNGTVHLSCQEKQNTVCTCHAGFFLRENECVSCSNCKKSLECTKLCLPQIENVKGTEDSGTT
B9: TNFRI171-A21 (receptor)
chain: MDSVCPQGKYIHPQNNSICCTKCHKGTYLYNDCPGPGQDTDCRECESGSFTAIENFLPGCLSCSKCRKEMGQVEISSCTVDRDTVCGCRKNQYRHYWSENLFQCFNCSLCLNGTVHLSCQEKQNTVCTCHAGFFLRENECVSCSNCKKSLECTKLCLPQIENVKGTEDSGTT

Each binder was assayed against TNF-α (UniProt P01375 77-233, limits assumed) (assay: cell-based or functional assay).
TNF-α, sequence (P01375 77-233 limits assumed): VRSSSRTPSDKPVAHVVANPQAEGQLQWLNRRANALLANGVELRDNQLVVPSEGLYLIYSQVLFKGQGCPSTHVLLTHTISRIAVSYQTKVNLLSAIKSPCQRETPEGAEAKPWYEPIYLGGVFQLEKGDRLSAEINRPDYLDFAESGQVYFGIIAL
In the case of B1, the “Relative Activity (Cytotoxicity-neutralizing activity) (fold)” value (shortened to “Relative Activity … (fold)”) is reported as 127 fold. In the case of B2, the “Relative Activity … (fold)” value is reported as 120 fold. In the case of B3, the “Relative Activity … (fold)” value is reported as 44 fold. In the case of B4, the “Relative Activity … (fold)” value is reported as 142 fold. In the case of B5, the “Relative Activity … (fold)” value is reported as 158 fold. With B6 the “Relative Activity … (fold)” value was 139 fold. In the case of B7, the “Relative Activity … (fold)” value is reported as 207 fold. In the case of B8, the “Relative Activity … (fold)” value is reported as 126 fold. With B9 the “Relative Activity … (fold)” value was 226 fold.

Reference: patent US20120277142A1 (HANALL BIOPHARMA, published 2012)
